From patent US7115556B2, “Use of anti-prolactin agents to treat proliferative conditions” (Greenville Hospital System, priority 1998, dated 2006)

How the values were obtained:
hPRLR = target: T1, hPRLR (Homo sapiens, UniProt P16471); settings: Goffin et al., 1996; cited from earlier work
T1 sequence (P16471 25-622): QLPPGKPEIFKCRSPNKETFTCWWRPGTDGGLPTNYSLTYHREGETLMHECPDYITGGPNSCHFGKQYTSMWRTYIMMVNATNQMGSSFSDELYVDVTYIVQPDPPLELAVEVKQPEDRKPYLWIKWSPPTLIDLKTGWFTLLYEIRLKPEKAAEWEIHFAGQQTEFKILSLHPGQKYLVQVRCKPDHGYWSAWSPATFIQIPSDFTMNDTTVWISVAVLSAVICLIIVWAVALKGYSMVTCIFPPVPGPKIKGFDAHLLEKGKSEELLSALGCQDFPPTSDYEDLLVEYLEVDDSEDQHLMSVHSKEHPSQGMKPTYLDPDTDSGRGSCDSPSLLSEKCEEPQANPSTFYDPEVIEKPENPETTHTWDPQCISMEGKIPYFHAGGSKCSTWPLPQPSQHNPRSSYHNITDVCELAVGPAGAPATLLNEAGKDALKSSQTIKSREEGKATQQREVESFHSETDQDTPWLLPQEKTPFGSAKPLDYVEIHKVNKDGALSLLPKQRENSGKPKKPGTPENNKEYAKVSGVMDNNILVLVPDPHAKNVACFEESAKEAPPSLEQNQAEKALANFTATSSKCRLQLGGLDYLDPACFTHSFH

[1] = test system: T47D human breast cancer cells; assay: Mixed cell culture assay with transfected L cells, T47D; assay type: cell-based
Description: For certain experiments, a mixed cell culture assay was used, diagramatically represented in FIG. 6. In this assay, breast cancer cells were co-cultured with expressor cells which had been transfected with nucleic acid encoding PRL or a PRL variant and expressing those recombinant proteins. By varying the number of expressor cells, the amount of PRL or PRL variant present in the mixed cell culture was increased or decreased. […] In certain wells, which served as a control, no expresser cells were added. Then, increasing numbers of expresser cells (transfected L cells expressing either HPRL (L-PRL) or hPRLA (L-PRLA)) were added to breast cancer cell-containing wells to create mixed cultures. The same numbers of expressor cells were cultured in parallel (without T47D cells) to serve as controls. After culturing under standard conditions for a period of time, the number of cells present in the wells was counted, and the number of L cells in the corresponding control culture was subtracted. The resulting number could then be compared to the number of T47D cells in the T47D control culture to evaluate the effects of the recombinant product on breast cancer cell proliferation.

[2] = test system: tyrosine phosphorylation of STAT5 protein in T-47D human breast cancer cells; assay: hPRL induction of tyrosine phosphorylation of STAT5 protein (Example 8); assay type: cell-based
Description: Assay of hPRL induction of tyrosine phosphorylation of STAT5 protein. […] Tyrosyl phosphorylation of STAT 5 is a receptor mediated event and is thought to be an important step in ligand-induced signal transduction (Wakao et al., 1994, EMBO J. 13: 2182–2191; Kazansky et al., 1995, Mol. Endocrinol. 9:1598–1609; Waxman et al., 1995, J. Biol. Chem. 270:13262–13270). This assay was used to evaluate the ability of hPRL and hPRLA to inhibit induction of STAT 5 phosphorylation by wild type PRL.
Briefly, human breast cancer cells were plated in 12-well plates. After pre-incubation in serum-free DMEM for 2–3 hours, the cells were exposed to various concentration of hPRL and hPRLA in serum-free DMEM. The cells were incubated for 15 min at 37° C., washed once with PBS, and lysed in 300 μl lysis buffer (50 mM Tris-HCl, pH 6.8, 1% SDS, 1% β-mecaptoethanol, 0.1M DTT, 5% Sucrose, 100 uM Sodium Orthovanadate, and 0.6% bromphenol blue). Thirty microliters of cell lysates were subjected to 4–12.5% SDS-PAGE and immunoblot analysis using horse radish peroxidase (HRP)-conjugated anti-phosphotyrosine antibody PY20 and ECL reagent kit (Amersham, Ill.). Blots were then exposed to X-ray films and developed using standard procedures (Kodak, Rochester, N.Y.). This assay has been described in Chen et al., 1994, J. Biol. Chem. 269: 15892–15897; Chen et al., 1995, Endocrinol. 136:660–667; Wang et al., 1994, Proc. Natl. Acad. Sci. U.S.A. 91:1391–1395; Chen et al., 1995, Mol. Endocrinol. 9(3):292–302; Harding et al., 1996, J. Biol. Chem. 271(12):6708–6712.

prostate cancer cells = assay: TUNEL assay, prostate cancer cells; assay type: cell-based, human; settings: 250 ng hPRL-G129R, 24 hours
Procedure: Terminal deoxynucleotidly transferase mediated dUTP nick end labeling (TUNEL) assay. Nicks of the fragmented DNA are labeled at their 3-OH ends. The fluorescein-labeled dUTP is incorporated at the 3-OH ends by using the enzyme terminal deoxynucleotidyl transferase. After the assigned period of treatment the chambers were dismantled as per the manufacturer's instructions and the TUNEL assay (Apoptosis detection system, Fluorescein- Promega) was performed as per the manufacturer's instructions. The slide was examined under a FITC filter using an Olympus IX 70 microscope system.
The samples were in duplicate and each sample constituted about 2 million cells

T47-D cells = assay: Co-culture with L-G129R cells, T47-D; assay type: cell-based, human; settings: T47-D co-cultured with L-G129R cells
Description: The co-culture experimental set-up provides a sustained presence of biologically active hPRL-G129R, thereby resulting in a maximal response in these tumor cells.

MCF-7 cells = assay: TUNEL assay, MCF-7; assay type: cell-based, human; settings: 250 ng G129R, 24 hours
Procedure: Cell Culture. T-47D cells obtained from ATCC were grown in RPMI 1640 (phenol red free), supplemented with 10% FBS (GIBCO BRL). BT-474 cells were grown in RPMI 1640 medium (phenol red free) supplemented with 10% FBS and ATCC recommended supplements. MCF-7 cells were grown in DMEM medium (phenol red free), supplemented with 10% FBS. The cells were grown at 37° C. in a humid atmosphere in the presence of 5% CO2. The MDA-MB-134 cells were grown in Leibovitz's L-15 medium supplemented with 20% FBS and grown in CO2 free atmosphere. The breast cancer cells were trypsinized (0.02% Trypsin—EDTA) and grown in their respective media (phenol red free) supplemented with 10% CSS (Charcoal stripped serum) for a week. Subsequently the cells were trypsinized again and plated onto an 8 chambered slide system (Lab Tek II) at a confluence of 60–70% per chamber. The next day treatments were performed on the breast cancer cells using their respective media(phenol red free), supplemented with 1% CSS. The MDA-MB-134 VI cells were grown in phenol red containing medium, but with the same serum conditions as the other breast cancer cells.
Terminal deoxynucleotidly transferase mediated dUTP nick end labeling (TUNEL) assay. Nicks of the fragmented DNA are labeled at their 3-OH ends. The fluorescein-labeled dUTP is incorporated at the 3-OH ends by using the enzyme terminal deoxynucleotidyl transferase. […]

B1: hPRL-G129R: variant of human prolactin having a substitution of the glycine at position 129 with an arginine residue; prolactin receptor antagonist (protein)
chain: LPICPGGAARCQVTLRDLFDRAVVLSHYIHNLSSEMFSEFDKRYTHGRGFITKAINSCHTSSLATPEDKEQAQQMNQKDFLSLIVSILRSWNEPLYHLVTEVRGMQEAPEAILSKAVEIEEQTKRLLERMELIVSQVHPETKENEIYPVWSGLPSLQMADEESRLSAYYNLLHCLRRDSHKIDNYLKLLKCRIIHNNNC
- effect in PRLR reporter gene assay (hPRLR): antagonist effect
- effect on proliferation in mixed cell culture ([1]; T47D, three days, effect greater than on MCF-7): inhibitory effect
- inhibition of T47D proliferation ([1]; co-culture with L cells expressing hPRLA, 24 h to five days): up to 100%
- induction of phosphorylation of STAT5 proteins ([2]; T-47D cells, 5 nM of hormone alone, Western blot FIG. 3): absent
- hPRL-induced phosphorylation of STAT5 proteins in presence of hPRLA ([2]; equal amounts: 5 nM hPRL and 5 nM hPRLA (lane 4)): partially eliminated
- hPRL-induced phosphorylation of STAT5 proteins in presence of hPRLA ([2]; excess of hPRLA: 5 nM hPRL and 25 nM hPRLA (lane 5)): undetectable
- apoptosis of two prostate cancer cells (prostate cancer cells): underwent apoptosis
- inhibition of cell proliferation in co-culture (T47-D cells): Complete inhibition
- induction of apoptosis DNA fragmentation (MCF-7 cells): induced apoptosis
